The values below come from patent publication US20240279309A1.

This assay addresses CD40 receptor on cells (HEK293 reporter cells expressing CD40; primary human B cells) (human) (UniProt P25942). Description: cell-based or functional assay.

Several values for one entry are separate records, joined by “and”; a condition that tells them apart may be missing. Identical values can stand only once.

Sequence of CD40 receptor on cells (HEK293 reporter cells expressing CD40; primary human B cells) (human) (P25942 21-277): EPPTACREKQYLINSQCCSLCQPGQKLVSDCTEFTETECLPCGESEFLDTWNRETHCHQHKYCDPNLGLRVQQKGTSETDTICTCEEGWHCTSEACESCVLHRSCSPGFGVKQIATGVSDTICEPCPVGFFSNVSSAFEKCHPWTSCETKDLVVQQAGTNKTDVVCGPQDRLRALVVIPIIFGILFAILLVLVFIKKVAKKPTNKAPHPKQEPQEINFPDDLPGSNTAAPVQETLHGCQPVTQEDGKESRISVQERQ
Sequence of anti-CD40 monoclonal antibody corresponding to sequence 21.4.1 of U.S. Pat. No. 7,338,660 B2 (VH): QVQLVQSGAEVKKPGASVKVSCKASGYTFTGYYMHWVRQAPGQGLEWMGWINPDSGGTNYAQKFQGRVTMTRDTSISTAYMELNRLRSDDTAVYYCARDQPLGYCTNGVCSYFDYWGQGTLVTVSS
Sequence of anti-CD40 monoclonal antibody corresponding to sequence 21.4.1 of U.S. Pat. No. 7,338,660 B2 (VL): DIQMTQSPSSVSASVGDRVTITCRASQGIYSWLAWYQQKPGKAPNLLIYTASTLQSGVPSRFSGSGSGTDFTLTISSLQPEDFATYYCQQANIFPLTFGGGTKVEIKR

Turning to “anti-CD40 monoclonal antibody corresponding to sequence 21.4.1 of U.S. Pat. No. 7,338,660 B2”, the EC50 [nM], % CD86, human B cells with FAP-CHO, w HSA was 0.88 nM and 0.3 nM; the EC50 [nM], % CD86, human B cells with FAP-CHO, w/o HSA is 1.9 nM and 0.51 nM; the EC50 [nM], MFI CD86, human B cells with FAP-CHO, w HSA was 0.51 nM and 2.05 nM; the EC50 [nM], MFI CD86, human B cells with FAP-CHO, w/o HSA was 1.13 nM and 4.73 nM. The Efficacy [MFI at highest dose], MFI CD86, human B cells with FAP-CHO, w HSA is 1530 MFI and 1870 MFI; the Efficacy [MFI at highest dose], MFI CD86, human B cells with FAP-CHO, w/o HSA is 1340 MFI and 2060 MFI; the Efficacy [MFI at highest dose], MFI CD86, human B cells with WT-CHO (no FAP), w HSA was 1470 MFI and 1900 MFI; the Efficacy [MFI at highest dose], MFI CD86, human B cells with WT-CHO (no FAP), w/o HSA was 1390 MFI and 2050 MFI.
